Experimental data as given in the RNAGym collection of RNA variant scans (doi:10.1073/pnas.2313332121).
This sample holds only a part of the variants without activity.

B1: TPR 5TU (parent)
chain: GGAUCUUCUCGAUCUAACAAAAAAGACAAAUCUGCCACAAAGCUUGAGAGCAUCUUCGGAUGCAGAGGCGGCAGCCUUCGGUGGCGCGAUAGCGCCAACGUUCUCAACUAUGACACGCAAAACGCGUGCUCCGUUGAAUGGAGUUUAUCAUG

Variants of: B1
Test: polymerase ribozyme fitness, log enrichment relative to wild type (log ratio); higher = more active; in vitro selection for triplet polymerase activity
Summary of the method: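 The heterodimeric triplet polymerase ribozyme's subunits were each mutagenized into PCR-built libraries and transcribed. Every library was selected once, in triplicate, by annealing with a biotinylated primer, the partner subunit and triplets, incubating frozen at −7 °C, gel-excising extended constructs, capturing on streptavidin beads and running RT-PCR. Input and output libraries were Illumina-sequenced, with genotypes kept only at ≥10 input reads and ≥1 read per output. Fitness, from inverse-variance-weighted replicate averages, is the base-2 logarithm of genotype enrichment over wild-type enrichment.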

| Variant | polymerase ribozyme fitness (log ratio) |
| --- | --- |
| A17C U45A C54G G74A A91C U139G | ≤ -4.2 |
| A16G G34C C35A C54A C93A | ≤ -4.2 |
| A16G C38U U82A C96G | -1 |
| A17G A37U U82C C96A | -2.2 |
| A17C C131G | -3.09 |
| U15G C38U C87U U104A | -1.04 |
| A16G G86U | -2.72 |
| A17G A20U A37G U53G A98U A106U G126C G136C G143U | ≤ -4.2 |
| U15C G84A A106G G124A | -0.149 |
| A16U U56A A60U C93U G141U | -3.72 |
| A17C C38U A41C A60C | -1.39 |
| A17G C27U A49U C79A G83U C87U A120U | ≤ -4.2 |
| A17G A29U G42A C87U G100U A110C A115C A120G U134A | ≤ -4.2 |
| A16U A22U C38U C85U | -2.73 |
| A16U A22C C51U U55A G74A C99G C114A C131U | ≤ -4.2 |
| A16C U33A C54A C85A A91G C125G G133U | ≤ -4.2 |
| A16C C32G U56G C63G | ≤ -4.2 |
| U15G U53A A91G | -2.83 |
| A16G A19G A23U A26C U44A U53A C87G C103A | -4.11 |
| A16C C87U | -1.85 |
| A16C A52G U55A G94U A107G | ≤ -4.2 |
| A16G G34U A52U A60G G88U A91U G140C | -4.14 |
| A16G A52C U53A G92C U109G A137C U139G | ≤ -4.2 |
| A16U A21G C32U G50C U151G | ≤ -4.2 |

| Variant | polymerase ribozyme fitness (log ratio) |
| --- | --- |
| A16C C27A A30U C38G G48U G86U A110U C116G G141A | -4.02 |
| A17G C32A A49C G83U A107G G143U | ≤ -4.2 |
| U15G A40C G42A A49G G62C C93A | ≤ -4.2 |
| U15G A49G C87U G136A | -1.17 |
| A16C C96A U109C U148A | ≤ -4.2 |
| A17C C93U | -1.02 |
| U15G C95U U104G U144A | -0.599 |
| A17G C18U A40C C99G | -3.19 |
| A16U A64U A66C C93G | ≤ -4.2 |
| A16G G83A | -0.814 |
| U15C A37U G46U G84U U148C | ≤ -4.2 |
| A17G | 0.0905 |
| A17C | 0.315 |
| A17C G25C A41U C51A G84C G94U A110G U144C U146G | ≤ -4.2 |
| U15G C79G | -3.38 |
| A17C A19G C51U G59U C75A A91U C116G A121C | ≤ -4.2 |
| U15C A21U | 1.65 |
| C14U G46A A47C C57A G65C G86U C96U | ≤ -4.2 |
| A16U G84A | -2.41 |
| A16G A26C C32U A47C U53A A91G C96G | ≤ -4.2 |
| A16G C32A C38G U56A A60C C87A C123U A150C | ≤ -4.2 |
| A16G G86U C132U U135G | ≤ -4.2 |
| U15G G152U | -2.98 |
| A16C C18G U45G U61G | ≤ -4.2 |

| Variant | polymerase ribozyme fitness (log ratio) |
| --- | --- |
| A17G C38U G81A C96A | 0.341 |
| A17C A26U C75A G84A G141U | ≤ -4.2 |
| A17C A29U C72U G81C G140U | ≤ -4.2 |
| A16U C27G A89G G92U C149G | ≤ -4.2 |
| A17C A40U U55A A60U A66C C85G C116G G141C A147U | ≤ -4.2 |
| C14U G59U | -1.23 |
| U15G C38U U55A U56A C57G C85U A147C | -2.05 |
| A16U C87U C116U | -2.25 |
| A16G A40G G86C | ≤ -4.2 |
| A17C C76U C93G U102G C105A | ≤ -4.2 |
| A17C U33C G83A G141U | ≤ -4.2 |
| A17C C57U C93A U101G U144A | -2.86 |
| C14U U15A C93U U101A | -2.56 |
| C14U G83U C95U C116U | -1.49 |
| U15A C38U C54U C95G G141A | -1.16 |
| A17G A26C A40U A47C G59A G68A U109G C116G A119C | ≤ -4.2 |
| A16C G81A | -0.894 |
| A16G A28U C87A A107C | ≤ -4.2 |
| A16G C57G C76A | -1.31 |
| A16C A21U A39C U44A U45A A49G G84A G126U | ≤ -4.2 |
| A16U G65A C69A A91U C93A G100C U101G C123G | ≤ -4.2 |
| A16U U45C C123A | -2.97 |
| A17C A60U G81U G83U G86U C93A | -0.433 |
| A16G C43U C51U G80C G117A A142C | ≤ -4.2 |

| Variant | polymerase ribozyme fitness (log ratio) |
| --- | --- |
| A17G C38G C51A U78G U90G C131A | ≤ -4.2 |
| A17C C95U C96U G136A U144C A147U | -0.941 |
| A17C U31C A47C U55A C76U G84U | -3.49 |
| U15A A29C C35A G59A C76U G143C | ≤ -4.2 |
| C14U U55A | -1.33 |
| A16U A20U G58C G86A | -3.79 |
| A16U A49G | -1.93 |
| A16C C27G U53A C54A G74A G94A | ≤ -4.2 |
| U15C A28G U146C | ≤ -4.2 |
| A17C G34U C51U C57A G86A | -4.06 |
| U15A G59A A60U C79U C87A | ≤ -4.2 |
| A16U U31G A37G G83A C96A A106C | ≤ -4.2 |
| U15G G59U U135G | -3.96 |
| A16C G83U | -1.56 |
| A17C C27U C38A C85U | -0.305 |
| A16C C95U | -0.661 |
| A16G U31C C51U U53G C125A G140C | ≤ -4.2 |
| A16G C27G C54G G83A G86U A97U C105U U146A | ≤ -4.2 |
| A16C C57A G94A C116U G124A A142U | -3.92 |
| A17C U44G U61G | ≤ -4.2 |
| A16U A20C A41U C87G A98G | ≤ -4.2 |
| U15A A20U | -0.122 |
| A17C G68A G83A C116A G128A | ≤ -4.2 |
| A16G G34U A52U A60G C72G G88U A91U G140C | ≤ -4.2 |

| Variant | polymerase ribozyme fitness (log ratio) |
| --- | --- |
| A16G A28C C36A U44A G48C A49C C76G U77C A91U C103G | ≤ -4.2 |
| A16C A20G C27U A60G G117A | -3.38 |
| A16U U82G C87U A122C | -2.32 |
| A16G A26U C35A C51G U61A C87G A120U C129G | ≤ -4.2 |
| A16U A26C C54A A119C G133C U135A | ≤ -4.2 |
| U15G C32A G88A A97G | ≤ -4.2 |
| A16G A49U G62A G92A C96A | ≤ -4.2 |
| A16G A52G C57U A73C C85U C96G | ≤ -4.2 |
| U15C A17G C35G U56A G117C | -4.19 |
| A16G A17C A21U A29G U55A C57G A91C C103U U145A | ≤ -4.2 |
| C14U G92C G136A | -2.51 |
| A17G A24U A37C A41U G84A U101C C105A U111G C118U | ≤ -4.2 |
| C14U G140A | ≤ -4.2 |
| A17C A52C C79A G81A G84U A110G G112C | ≤ -4.2 |
| U15A U55A G59A | 0.845 |
| A17C C32A U53A G67A G74C U101A | ≤ -4.2 |
| U15G A47C | -0.922 |
| A16G A40C A119C U127C | -3.55 |
| A17C A23U A40C G86U | ≤ -4.2 |
| A17C U53A G71C G83A A91U C93A C108U U127G | ≤ -4.2 |
| A17G A21G U90C A147C A150U | ≤ -4.2 |
| A16G A23U A29G A37U C43U C79G C99A A122G | ≤ -4.2 |
| U15A C18G C27U U55A G86A C96G U104A A150G | ≤ -4.2 |
| A17G A26C C32U G59A C75U | ≤ -4.2 |

| Variant | polymerase ribozyme fitness (log ratio) |
| --- | --- |
| A17G A40C G48C | -1.5 |
| A16G A29G A47U C57U A73C C93G A98G A115G | ≤ -4.2 |
| A16U A28U C54U G117C | ≤ -4.2 |
| C14U G88A | -4.2 |
| U15C A41G U61G C99U | -2.24 |
| A16U C54A U101G A119U C149U | -4.08 |
| U15A A21G A49G C96G | -1.26 |
| U15C U61A A89G A98G | -1.62 |
| A16C C85G | -4.13 |
| A16C C85U | -1.75 |
| A16C C51U C87G C118G G133U | ≤ -4.2 |
| U15C A23G U82A C93G G126A | -4.14 |
| U15G A24U G25C C38G C54G C76G G81C C93A C132U | ≤ -4.2 |
| U15A G83U | -0.19 |
| A16U C35A G74A G80C G83U G86A A97U | ≤ -4.2 |
| A16C G50A C85U | -3.26 |
| U15C C93U | -0.331 |
| A16C A19G G34A G71A C87G U145A U146C | ≤ -4.2 |
| A16G A23U A29G A47C G50A C87G A106U U135C A147U | ≤ -4.2 |
| A16G A110G | -3.77 |
| A17G C18G A64G C85A G100A A106U A119U | ≤ -4.2 |
| A17G A28U C32U A39U C57A C95A A110G U144C A147G A150C | ≤ -4.2 |
| U15G A41U A73G | -1.57 |
| U15G A39U C43U G50C G94A | ≤ -4.2 |

| Variant | polymerase ribozyme fitness (log ratio) |
| --- | --- |
| A16C C38U G80U C96G A142C U148G | ≤ -4.2 |
| A16U A17G C85G | -4.18 |
| C14U G50C A98U C108A | ≤ -4.2 |
| A17C U55G C57A G59C C85A A115G A119U | -2.46 |
| U15G A23G G50C C51G C63G C96G | ≤ -4.2 |
| A16U A22C G59A C118A | -3.09 |
| U15A U31A G83U C103G U139A | ≤ -4.2 |
| A16C A24U G46C C105G C108G | ≤ -4.2 |
| A17G C32G C76U | ≤ -4.2 |
| U15A C27G A30U G68A A89U C95G A98U | ≤ -4.2 |
| C14U U53G | -3.01 |
| A16G G80A | -0.775 |
| A17C C27U G71A C93G A113C U134G U151G | ≤ -4.2 |
| A16U A20C G83C C96A A107G | ≤ -4.2 |
| A16G C18U U31G C35A C43A C95G C103U | ≤ -4.2 |
| U15A C43U U53G C76A U102G A119G G128U U135G A142U | ≤ -4.2 |
| U15C U145G | 0.506 |
| A17C A30G C95G | -3.8 |
| A16U C43U C87U U104G A107G C118A | ≤ -4.2 |
| U15G A73C G84U C96A C103G A110G A137C | ≤ -4.2 |
| A17C G34A C96G A121G A122C U134C | -1.47 |
| A17C A40G | -1.63 |
| A16C G83C U146G U148C C149A | ≤ -4.2 |
